{"source": "patent US6642368B1", "about": "“Programmed cell death and caspase-12” (The General Hospital Corporation, priority 1998, dated 2003)", "key": {"[1]": {"test_system": "T1, caspase-12Δ (Gly95-Asn419 of caspase-12L, with an artificial initiation codon), [35S]-labeled", "T1 sequence": "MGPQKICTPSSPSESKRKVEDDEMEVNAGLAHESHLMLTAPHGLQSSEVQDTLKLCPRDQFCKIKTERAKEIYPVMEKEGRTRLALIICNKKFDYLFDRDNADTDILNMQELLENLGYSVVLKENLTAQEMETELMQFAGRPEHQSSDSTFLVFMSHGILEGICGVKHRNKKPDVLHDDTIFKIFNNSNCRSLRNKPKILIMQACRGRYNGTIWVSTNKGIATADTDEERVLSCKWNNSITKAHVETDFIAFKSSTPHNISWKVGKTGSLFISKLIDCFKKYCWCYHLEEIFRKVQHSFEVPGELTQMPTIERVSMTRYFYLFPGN"}, "[2]": {"test_system": "T2, pro-caspase-12 (caspase-12L, full-length precursor, 419 residues, 48 kDa)", "T2 sequence": "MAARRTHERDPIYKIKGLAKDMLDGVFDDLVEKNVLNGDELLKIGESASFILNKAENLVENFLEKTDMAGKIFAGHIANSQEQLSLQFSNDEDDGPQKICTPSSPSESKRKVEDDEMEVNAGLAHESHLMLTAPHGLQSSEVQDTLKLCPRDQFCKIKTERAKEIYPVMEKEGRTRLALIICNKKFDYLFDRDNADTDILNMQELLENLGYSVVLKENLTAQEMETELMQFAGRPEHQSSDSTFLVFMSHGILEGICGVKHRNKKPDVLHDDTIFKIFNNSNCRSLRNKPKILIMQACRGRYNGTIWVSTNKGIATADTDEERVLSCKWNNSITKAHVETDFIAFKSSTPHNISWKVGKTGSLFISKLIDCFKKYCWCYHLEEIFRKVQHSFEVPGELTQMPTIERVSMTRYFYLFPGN"}, "[3]": {"target": "T3, caspase-12Δ2 (Mus musculus, UniProt O08736)", "T3 construct": "made in house; host or cells: E. coli BL21(DE3) pLys", "test": "Inhibition of cleavage of pro-caspase-12 by purified caspase-12Δ2", "assay_type": "biochemical", "conditions": "preincubation 1 mM DTNB 25° C. 60 min or 2 mM iodoacetamide 0° C. 60 min", "procedure": "ICE, casp-2 and casp-3 were cloned into a pET-15b vector (Novagen) and their expression was induced in the presence of 0.2-0.3 mM IPTG (Wang, S., et a., J. Biol. Chem. 271:20580-20587 (1996); Cryns, V. L., et al., J. Biol. Chem. 271:31277-31282 (1996)). Bacterial lysates containing the ICE-like proteases were prepared as described (Wang, S., et al., J. Biol. Chem. 271:20580-20587 (1996); Cryns, V. L., et al., J. Biol. Chem. 271:31277-31282 (1996)). [^35S]-labeled proteins were prepared by in vitro transcription and translation using a TNT coupled reticulocyte lysate system (Promega) and [^35S]methionine (Amersham). Labeled proteins were incubated at 37° C. with purified caspase-12Δ2 or at 30° C. with E. coli lysates containing the caspase family members. The reaction mixture contained 25 mM Hepes (pH 7.5) with 5 mM EDTA, 5 mM dithiothreitol, 10% sucrose, 10 μg/ml leupeptin and 250 μM phenylmethylsulfonyl fluoride. Amount of proteins used for cleavage reaction were: 0.1 μg for partially purified caspase-12Δ2, 25-70 μg for E. coli lysate. […] Cleavage products were analyzed by either 10- or 15% SDS-polyacrylamide gel electrophoresis. […]"}, "[4]": {"test_system": "Rat-1/bcl-2", "test": "Effect of cell death suppressor bcl-2 on caspase-12 killing activity", "assay_type": "cell-based", "procedure": "FIGS. 5A-5B. Effect of cell death suppressors on the killing activity of caspase-12. […] Cell death was assayed as described in FIG. 4C. […] The data from transfection of the parental cell line, Rat-1 (FIG. 4C), are included in the figures for comparison. The lacZ construct was also used for transfection as a control.\nTo determine if expression of bcl-2 and crmA can inhibit apoptosis induced by casp-12 overexpression, casp-12L-lacZ fusion construct was transfected into stable cell lines of Rat-1 that overexpresses either bcl-2 or crmA (Miura, M., et al., Cell 75:653-660 (1993)). Cell death was assayed as described above (Example 3). […] The magnitude of the bcl-2 suppression against toxicity of casp-12 overexpression was about 10% (60% for Rat-1, 50% for Rat-1/bcl-2) which is much smaller than that observed for ICE and casp-2 (FIG. 5A; Wang, L., et al., Cell 78:739-750 (1994))."}, "[5]": {"test_system": "Rat-1 cells", "test": "Cell death induced by transient overexpression of lacZ fusion constructs, X-gal staining", "assay_type": "cell-based", "conditions": "lacZ fusion construct, 24 hr after transfection", "description": "FIGS. 4A-4C. Cell death induced by overexpression of caspase-12. […] The round cells expressing the casp-12L-lacZ fusion proteins show condensed and fragmented nuclei. […] The data shown are the percentage of round blue cells among total number of blue cells counted. In each transfection, over 200 blue cells were randomly chosen and counted. The data of Rat-1 cells collected from at least three independent experiments. The constructs used were: casp-12L-lacZ, casp-12S-lacZ, casp-12Δ-lacZ, ICE-lacZ, lacZ. Rat embryonic fibroblast cells (REF) were also transfected with either casp-12L-lacZ or lacZ.\nTo examine if expression of caspase-12 induces apoptosis, a transient expression system was used to overexpress caspase-12 in mammalian cells. […] Transfected cells are easily detected by staining with X-gal because of the β-galactosidase activity of lacZ. Expression constructs of casp-12L and casp-12S fused with lacZ gene in pcDNA3 vector, which contains the cytomegalovirus (CMV) promoter, were generated. These expression constructs were introduced into Rat-1 cells by transfection, and the expression of the genes were examined 24 hr after transfection using X-gal reaction.\nRat-1, rat embryonic fibroblast cells, NG108-15, HeLa and COS-1 were maintained in culture at 37° C. with 5% CO2 in Dulbecco's modified Eagle's medium containing 10% (v/v) fetal bovine serum (BioWhittaker) and 50 units/ml penicillin and 50 μg/ml streptomycin (Sigma). The day before transfection, cells were seeded at a density of 1.3×10^4 cells/cm^2. Expression constructs were transferred to cells with either calcium phosphate or lipofectamine (GIBCO BRL) as previously described (Miura, M., et al., Cell 75:653-660 (1993); Kumar, S., et al., Genes and Development 8:1613-1626 (1994); Wang, L., et al., Cell 78:739-750 (1994)). The expression of chimeric genes in cells was detected by staining of cells with 5-bromo-4-chloro-3-indolyl β-D-galactoside (X-gal) as previously described (Miura, M., et al., Cell 75:653-660 (1993); Kumar, S., et al., Genes and Development 8:1613-1626 (1994); Wang, L., et al., Cell 78:739-750 (1994)). Immunostaining of transfected cells was done as previously described using mouse monoclonal anti-lacZ antibody (Miura, M., et al., Cell 75:653-660 (1993); Kumar, S., et al., Genes and Development 8:1613-1626 (1994); Wang, L., et al., Cell 78:739-750 (1994))."}}}
{"molecule": "caspase-3 (E. coli lysate, expressed from pET-15b)", "values": [{"measurement": "in vitro cleavage of the [35S]-labeled truncated form", "setting": "[1]", "result": "Caspase-3 treatment of the truncated form did not produce any smaller fragments"}, {"measurement": "in vitro cleavage of [35S]-labeled caspase-12 precursor by E. coli lysate containing the caspase", "setting": "[2]", "result": "caspase-2 and caspase-3 can cleave pro-caspase-12 protein, generating smaller fragments of about 40 kDa"}]}
{"molecule": "caspase-2 (E. coli lysate, expressed from pET-15b)", "values": [{"measurement": "in vitro cleavage of [35S]-labeled caspase-12 precursor by E. coli lysate containing the caspase", "setting": "[2]", "result": "Cleavage of pro-caspase-12 by caspase-2 generated a fragment of about 40 kDa at a lower cleavage efficiency, compared to caspase-3 digestion"}]}
{"molecule": "O=C(O)c1cc(SSc2ccc([N+](=O)[O-])c(C(=O)O)c2)ccc1[N+](=O)[O-]", "note": "[5,5′-dithio-bis(2-nitrobenzoic acid)]", "values": [{"measurement": "inhibition of proteolytic activity of caspase-12Δ2 by pretreatment with thiol reagent", "setting": "[3]", "result": "completely inhibited"}]}
{"molecule": "Bcl-2: mammalian cell death suppressor, homolog of C. elegans ced-9", "values": [{"measurement": "magnitude of bcl-2 suppression against toxicity of casp-12 overexpression", "setting": "[4]; 60% for Rat-1 versus 50% for Rat-1/bcl-2", "result": "about 10%"}, {"measurement": "inhibition of cell death induced by overexpression of casp-12", "setting": "[4]; Rat-1/bcl-2, FIG. 5A", "result": "only very weakly inhibited"}]}
{"molecule": "NC(=O)CI", "note": "[iodoacetamide]", "values": [{"measurement": "inhibition of proteolytic activity of caspase-12Δ2 by pretreatment with thiol reagent", "setting": "[3]", "result": "completely inhibited"}]}
{"molecule": "caspase-12Δ: truncated caspase-12, amino acid residues 95-419 of SEQ ID NO:2 (protein, lacZ fusion) GPQKICTPSSPSESKRKVEDDEMEVNAGLAHESHLMLTAPHGLQSSEVQDTLKLCPRDQFCKIKTERAKEIYPVMEKEGRTRLALIICNKKFDYLFDRDNADTDILNMQELLENLGYSVVLKENLTAQEMETELMQFAGRPEHQSSDSTFLVFMSHGILEGICGVKHRNKKPDVLHDDTIFKIFNNSNCRSLRNKPKILIMQACRGRYNGTIWVSTNKGIATADTDEERVLSCKWNNSITKAHVETDFIAFKSSTPHNISWKVGKTGSLFISKLIDCFKKYCWCYHLEEIFRKVQHSFEVPGELTQMPTIERVSMTRYFYLFPGN", "values": [{"measurement": "percentage of cell death (round blue cells among total blue cells)", "setting": "[5]", "result": 60, "unit": "%"}]}
{"molecule": "caspase-12S: alternatively spliced short form of caspase-12, 349 amino acid residues (SEQ ID NO:14) (protein, lacZ fusion) MAARRTHERDPIYKIKEFSNDEDDGPQKICTPSSPSESKRKVEDDEMEVNAGLAHESHLMLTAPHGLQSSEVQDTLKLCPRDQFCKIKTERAKEIYPVMEKEGRTRLALIICNKKFDYLFDRDNADTDILNMQELLENLGYSVVLKENLTAQEMETELMQFAGRPEHQSSDSTFLVFMSHGILEGICGVKHRNKKPDVLHDDTIFKIFNNSNCRSLRNKPKILIMQACRGRYNGTIWVSTNKGIATADTDEERVLSCKWNNSITKAHVETDFIAFKSSTPHNISWKVGKTGSLFISKLIDCFKKYCWCYHLEEIFRKVQHSFEVPGELTQMPTIERVSMTRYFYLFPGN", "values": [{"measurement": "percentage of cell death (round blue cells among total blue cells)", "setting": "[5]", "result": "about 60%"}]}
